From publication PMC7251119 (2020)

B1: (His)10-MBP-DotL(656-783)–IcmSW–LvgA (complex)
chain 1: GQNEPEPVEDIVEEEVEGALTIFSKLRIDPNAPPILVADKEVFSEPLLPINETRNQMITIERLAGAKDKYAGTVANELIKDFQIATSYPPEERDVIDVQELTGIIRDLSAKISAEREKANKKAAEELT
chain 2: MERDISKCMAKIAASMNAKFYLNDRFVSFDEVFSETGLLPAIAKRADQLCSLCLGYGLGATYDESEGALLGIRVVFDEVTPNVLRLLCMTDVMNELIQGGPSRDYTPLDELMYD
chain 3: MPDLSHEASAKYWFEYLDPMIYRVITFMESVENWTLDGNPELEEAMKQLGQELDDIEKIDLGLLAEEDKFIRIVGNIKSGRGLRLLQAIDTVHPGSASRVLIHAEETSLSSSDPAGFFLKRNIVFERLRLLSRVFCQYRLKLVLRALEGDE
chain 4: MADGDIEIKAGFVDTDLDDRKLTMIDDLNNPLAIVERVYLIWWHWADFHLHVISPHIDTITPAIVIEPELIPGSNDHEFVYSIHDSGSKLSTSKSQDMFSAGMSMCKLFYTIEKMVYILVERLKSGGVSMEAEVQIAFAGHEIAQRKAFESIINLPYNVVVTNFDPGIWGEKYLQNVKRLADKGYGYPPESPRKIYMHPVSSGTTARK

Key:
Assay in all cases: BLI
PieA = PieA (Legionella pneumophila)
SidH(1830-2200) = SidH(1830-2200) (Legionella pneumophila, UniProt Q5ZRQ1 1830-2200)
[1] = target: B1

Binder	Kd (PieA)	Kd (SidH(1830-2200))	Kd [1]
B1	230 nM	570 nM	–
SetA (natural protein) MYKIYSYLGWRIDMKTENLPQAGQEAQIDKKIHFIWVGHIMPQKNIQVVSEWAEKNPGYETIIWVDKKIAPAKELDLFILDMKSKGITVKDINEEGVCRDSIRHELDQESPNYGMVSDMLRLNILAAEGGIYLDSDILCSAPFPDEIYAPFGFLLSPWSQGANNTLCNDIILCSKGNQIIQQLADAIEQSYIARDSFEFTHEYASMKETKGERIAKTLGVTGPGFLFHQLKKMGILNDKSEMEAIHWELQDQRYLIDGSVKEPDYFYVPQNNTNDASWVPSIKRPGIENMSFQERLENAVQLIAFDIQKTGLFNLDHYANELKVKQNSWCIAAETSPELKPDSYLLIRPRDKTGEWTLYYVDEDKKLNPVTLPVIKGAIKLSEVSDPLRKFHTLLSQVSDPVNPTAHELKQIGRALIELKPRQDEWHCKNKWSGAEEIAQELWQRITSNETLRAQIKQCFTQFESLKPRVAELGLTRASGAGTEVEAHESTVKEQEIISQNTVGEEGTKEKNSVQLASENSSDEKIKTAHDLIDEIIQDVIQLDGKLGLLGGNTRQLEDGRVINIPNGAAMIFDDYKKYKQGELTAESALESMIKIAKLSNQLNRHTFFNQRQPETGQFYKKVAAIDLQTTIAAEYDNNHGLRI	–	–	920 nM
